Assay: soluble on expression in E. coli; label from the status in PepcDB or PDB records

Sequence | soluble on expression in E. coli
MLLLTPGPTPIPERVQKALLRPMRGHLDPEVLRVNRAIQERLAALFDPGEGALVAALAGSGSLGMEAGLANLDRGPVLVLVNGAFSQRVAEMAALHGLDPEVLDFPPGEPVDPEAVARALKRRRYRMVALVHGETSTGVLNPAEAIGALAKEAGALFFLDAVTTLGMLPFSMRAMGVDYAFTGSQKCLSAPPGLAPIAASLEARKAFTGKRGWYLDLARVAEHWERGGYHHTTPVLLHYALLEALDLVLEEGVAARERRAREVYAWVLEELKARGFRPYPKASPLPTVLVVRPPEGVDADRLVRALYAEGVAVAGGIGPTRGQVLRLGLMGEGARREAYQAFLKALDRALALA | soluble
MGSDKIHHHHHHMNLVAHAQNTEPFEGVMKWAITVDIVDSKVADSYQTEIQSEDNSEVNQAIKELEQQLKDPEMQEMLLENPTIKNSMLKKLQQLKAAQTTNQENSTNSIFPSALSIFLKNNNSFTKIDGGSMVKLTGNMLYLNTNKNTYFIKDKTSTYSVINDTARLNTNDSLIALIATTDTTMILDCICIKYILTTKENNEIKTSYIWITNDLPSMNSAAFRSLGFMDGNLHHEAFKEMKGIPMRIEIFEKGLKMNMEVSEISMELVADTYFTIPSNYRESPFGF | not soluble
MRLSMENIMNNPVIGVVMCRNRLKGHATQTLQEKYLNAIIHAGGLPIALPHALAEPSLLEQLLPKLDGIYLPSSPSNVQPHLYGENGDEPDADPGRDLLSMAIINAALERRIPIFAICRGLQELVVATGGSLHRKLCEQPELLEHREDPELPVEQQYAPSHEVQVEEGGLLSALLPECSNFWVNSLHGQGAKVVSPRLRVEARSPDGLVEAVSVINHPFALGVQWHPEWNSSEYALSRILFEGFITAWQHHIAEKQRL | not soluble
MISPQEQQKQEIATTPSGTKENEKLVVPGVQVALENISTKSVLNAVNYKYAQLFHREQVSSAQSNTTSKQYIEERKTSNGTIGEVLRKFEKGRLLGKGGFAKVYQLTDIHTHQKYAGKIIPKNAIRKESAKQKLISEIRIHRELRHRHIVKFESCFEDQENVYIVLELCPNGSIMDMVRQRGRLTEYETRYFMIQILDAIRYMHRECLVIHRDLKLGNFFLDENMEVKIGDFGLAAQLSSDKERKRTICGTPNYIAPEILSGKQGHSFEVDIWSTGVVFYTMLVGKPPFETSDVKSTYKRIKENIYSIPESLDLSTSAIELIGSILNSDPAKRLSLDEIRSHPFFDAKIPRALSIHALKSTPVFEESELIERNKESSSYKKGRENRQQTVVGSSGLWNDVIQSISQDQRTPLQKLQQHIKSNAAKNNDHAEKLHQALEKHLQLNDNQSKKEEKLLESQEAHSKSTKGIFDKGLDTQSEDEERMVLNKVRDQLTSSFALLKNAEQSPYAFTSSLNTNDGTTSGSPSFQSPVNALTGGAWICKWLDYSKKYGLGYQTCLGSTGVCFNDGTQIILEKGQQNWIYYMKRTESHEERNENKWIKMTMEDYPSELQKKVKLLIHFRNYMLDHTPKGQEDPLISPESSFQNIDTSNETCGAKDATRPVYIKTWFRSPYAIIFRLSNRNIQVDFNDGTEVILSPEVHVVTYRGKDGRRNSYQQGHLPSLPELLKRLRYVMDLLQEMLNRKTS | soluble
PVHAVGIGPGNLDFLTPRGEEAIREADVVVGFETVVEFVADRTDADLLTCGYRDELDTLDAFAERVAGGERGTAVAMGDPNHSGYQFVGKVQRAVDRPVRIVPGI | not soluble
MSSDEQKPEVNGYWTSVKNFSSSAATSINNATTSAWNSEFAASTSATVKDFSTSATKSIGEAATSAWNSETASTATSAISEAAKNARSWYDSSSEENEELEPSGHGFRGGIAALSRNASHYVISTVGRSSNILNIFDKTNKSSLGNPRWWIRFDRPHGNVDFHHININKAVTGLKDPHIPLTPTTAKTIGVLGKVAEKANDVAPLLTTAAMIYEAYRVGQEVHKDMNHGTTRNTIKTLAATSGTYSSGSIGAYAGSVIGTSIFPGLGTIFGAVVGGIVGGHFGGHYSHVATENALNHVKWDVVTFVCDGCDEEYTWKKYQEIEGTCCTRFNNKRQDSVDYWFKKLETNHDF | not soluble
MNLVALAQLILFVLRNLNLKPRKHKPEEIALAIAAYVMGVQITKLNIPPSTLYYYTRKLGVKRRKDVRPRCPSCNSDRVIKNGSSRGKSKYKCKVCGRTFYGTASHRMSREQRERILREYTNRMSLRGISKVEGRPLTTVYSSVKRAALKAYVDLSILQAQLKAFRSKFAVLDESWTYVRVRRGPRRQNLWIWNALIDGVPFFVTGDRDYNTFRLLWLSLPKCEVHYTDDYPIYQVLYHHVVGKKYTHTVESYNSFCRSHLARLARDTKAVNRSRAMIDYSLALLNVMYPQVFTDEKTPLNLAYLSGVQYIRDHLILEHHHHHH | soluble
VQLSPDLLATLPEPASPGRQACGRRHKKRTFLRPRIIGGSSSLPGSHPWLAAIYIGDSFCAGSLVHTCWVVSAAHCFSHSPPRDSVSVVLGQHFFNRTTDVTQTFGIEKYIPYTLYSVFNPSDHDLVLIRLKKKGDRCATRSQFVQPICLPEPGSTFPAGHKCQIAGWGHLDENVSGYSSSLREALVPLVADHKCSSPEVYGADISPNMLCAGYFDCKSDACQGDSGGPLACEKNGVAYLYGIISWGDGCGRLHKPGVYTRVANYVDWINDRIRPPRRLVAPS | soluble
MGSDKIHHHHHHENLYFQGMARTAEEQANHDLVIEMYNKVLIAMDSSAVDRYIAPGYVQHSSLAEPSVEALKGFLDRVRAESPDARQTIHRSFVDGDHVITHTHVERWPGDAGLAVVDIFRVEGGMIVEHWDVIQDVPANPVNPNSMF | soluble
MERLDFSSIIRKDREEHKSKKFEGTFLEYLEIVKENPEITMLAHQRMYKLITEPGVTVIRTEENPRLRRIYGNDIIKKYKFFEDEFFGIDKTIMKIVRYFHSAAMAGEEARQVLYLVGPVGAGKSSLMEALKRALEMSPPIYALKGCPMREEPLHLVPKHLRKEFEEILNVRIEGDLCPICRYRLKNEYNGEYERFPVETVDFSIRSRKGIGVVPPVDPNNQDTSVLIGSVDISKIDLYPEDDPRVLSLNGAFNVGNRGIVEFIEVFKNETEYLHTMITATQEKSIPSPGKGSMIYFDGIILAHSNEAEWNKFKSDHTNEAILDRIVKIEVPYCLELNEEIKIYEKILRKSKFDAHIAPHTIEIAAMFAILTRLAPSNKVDPMTKLKIYNGEEIIEKGMTKKVDIFELKEEAPREGMTGISTRFIMKVLDTTLSESEHNCINPISVMETLVKSIKELSISEEERERYLRFVQDSIRKEYNKILEREITKAFIHGYKEQAESLFNNYLDHAEAFVNKSKIKDRNTGEELEPDEKFLRSIEEQIGITDTAAKGFRADVTAYMFYVLRNGGKLDYTSYEPLKEAIEKKLTSSVRELSRVITQAKVRDKEQSEKYDTMVQEMKNNGYCDHCCNVILKYAANNLWKD | soluble
MDNPCPTCGQELEWTGQYHCSACTVDYCKVGFCPECGSELEKLQACGAANYFCNQCNELKSKSKIRFVFQPLNGNSQLEHHHHHH | soluble
MNQTLLSSFGTPFERVENALAALREGRGVMVLDDEDRENEGDMIFPAETMTVEQMALTIRHGSGIVCLCITEDRRKQLDLPMMVENNTSAYGTGFTVTIEAAEGVTTGVSAADRITTVRAAIADGAKPSDLNRPGHVFPLRAQAGGVLTRGGHTEATIDLMTLAGFKPAGVLCELTNDDGTMARAPECIEFANKHNMALVTIEDLVAYRQAHERKAS | soluble
METPLEKALTTMVTTFHKYSGREGSKLTLSRKELKELIKKELCLGEMKESSIDDLMKSLDKNSDQEIDFKEYSVFLTMLCMAYNDFFLEDNK | soluble
MGSDKIHHHHHHMRKAGESMKEFISLKIDYAFKLIFGKEGNEAILIAFLNAALKLPQERRIEAITIMNPELNKEYQGDKKSILDVRAETSEGMQINIEIQLSNQYDMEKRSLYYWAEMYSRQIREGMAYKELAKAVTINILDFNYLKQTSNYHNVFHLYEDEEKFQLTDALEMHFMELPKLLAKWRNREISPWENELVRWLLLLEGADNQEILQTLEEIAMKDPVLHQAMTAWEETSDDPRIREAYFDRRKAVLDEKAAIREAELRLKEALEKGRAAGIAAGKAEGKAEVAKKLLDLGFEITKVAEATGLSEKDIRSLKD | not soluble
EEPSSNEIHIGSLVIFPDAYVVSKRDETIELTHREFELLHYLAKHIGQVMTREHLLQTVWGYDYFGDVRTVDVTVRRLREKIEDNPSHPNWIVTRRGVGYYLRNPEQD | soluble
MGHHHHHHSHMNLGKESRAQTLQNGRRHIHHLGNQLQLNQHCLDTAFNFFKMAVSRHLTRGRKMAHVIAACLYLVCRTEGTPHMLLDLSDLLQVNVYVLGKTFLLLARELCINAPAIDPCLYIPRFAHLLEFGEKNHEVSMTALRLLQRMKRDWMHTGRRPSGLCGAALLVAARMHDFRRTVKEVISVVKVCESTLRKRLTEFEDTPTSQLTIDEF | not soluble
MIFNVRGENLEVTPALREYVEKKVGKLERYFDTTPVADVNVRMQVLNNLHIIEVTIPMSRLLLRAEEKHSDMYAAIDLVIEKLERQIRKHKTKVNRKFRQEGSLKYMFKNDLEPMDGMREEILLEEEDDLQVVRKKRFNLKPMDTEEAILQMDMLGHNFFVFSNAISGDTNVVYRRKDGKYGLIEPELEHHHHHH | soluble
MGDLKDGTYKLEEKNEKNGYRAVFEMTVKDGKITESKYDNINADGKSKTEDTKYEESMKAKSGVGPKEYIKQLNDSFVKAQSASGVEVVTGATHSSESFQNYAQQLIQAAQAGNTDTIEIDNGATLKDGTYSLKEKNDSNGYHTTFSMTVKDGKVTESNYDNVNADGKSKKDDTEYESKMKDVAGVGPKEYIETLNKEFVKAMGEEDGSPAGVEVVTGATHSTHSFINYAQQLVNAAEKGDTTEIVVDNIVTKLEHHHHHH | soluble
MAHHHHHHMERFRSEDVAEGAFTLNLDECGASLIELHAPLNGLAFMMQDAVVAQLAMGSTLAGSDAAKAPQDDHDGTTVNFRTLSTSAAGAIDALLSEMSARRVHFVSGVVTDAMLDVEGVTIIDPLPLEPRLNRFQRNMIRLSLTLEQQFFLLAEYLGNTSGGCAHGVIGSGEAAALAVDVWRVAGFCDALVDHLWWRGRCVCGGPFSWRCRWDCAARGVARRCARACRVLGVFTPAR | not soluble
MGNARGFLDFKRMDFKKIAPKERILNYKEFTIPLDKKEQEVQGGRCMDCGVAFCHTGVMSEGKDVGCPLNNLIPEWNDLVYRSLWKEAYERLDLTNPFPEFTGRVCPAPCEDSCVCAINGVSVSIKNNELSIIENAFKENLVRVNKPKQYNGKKIAVIGSGPAGLACANTLNSLGYKVSVFERSDKIGGLLMYGIPDMKLDKSIVQRRVDLLKKSGIEFKVNENIDSKDKVSKLLKEFDALVLCTGASKPIDLDIEGRKLKGVEFALDFLTQNTKTLLKTGKGADMAKGKNVLVIGSGDTSVDCIAVATRQGAKSIVRFERSPKRPLQRSQNNPWPLKADIFTTDYGLEEAIAVYGKDPREYQKMTKKFLGKTHVEGVEANDLKREFKEGKAINVEISNSKKTYKADLVLLAMGFSGCEEAISKNFGVKLDEKNNISTENFQTTHKKIFACGDARKGQSLVVWAIKDGIECALSLHQNLAKLEHHHHHH | not soluble
MTAPFFPRILGAVAFLNQETEPLTMNLQHHFLIAMPALQDPIFRRSVVYICEHNTNGAMGIIVNKPLENLKIEGILEKLKITPEPRDESIRLDKPVMLGGPLAEDRGFILHTPPSNFASSIRISDNTVMTTSRDVLETLGTDKQPSDVLVALGYASWEKGQLEQEILDNAWLTAPADLNILFKTPIADRWREAAKLIGVDILTMPGVAGHALEHHHHHH | not soluble
